In experiment [1] the target is collagen III (UniProt P02461). The experiment in a line: SPR; Biacore X100; collagen I or collagen III immobilised by amine coupling on a CM5 chip (around 1000 RU); CBD-SA-IL-4 flowed 90 s (collagen I) or 30 s (collagen III) at 30 μl/min; Langmuir 1:1 fit with drifting baseline. A general note: Surface plasmon resonance follows binding to a sensor surface in real time, without labels.

In experiment [2] the target is collagen I (UniProt P02452). The experiment is described as above.
Chain of collagen I (P02452 162-1218, chain 1 of 2): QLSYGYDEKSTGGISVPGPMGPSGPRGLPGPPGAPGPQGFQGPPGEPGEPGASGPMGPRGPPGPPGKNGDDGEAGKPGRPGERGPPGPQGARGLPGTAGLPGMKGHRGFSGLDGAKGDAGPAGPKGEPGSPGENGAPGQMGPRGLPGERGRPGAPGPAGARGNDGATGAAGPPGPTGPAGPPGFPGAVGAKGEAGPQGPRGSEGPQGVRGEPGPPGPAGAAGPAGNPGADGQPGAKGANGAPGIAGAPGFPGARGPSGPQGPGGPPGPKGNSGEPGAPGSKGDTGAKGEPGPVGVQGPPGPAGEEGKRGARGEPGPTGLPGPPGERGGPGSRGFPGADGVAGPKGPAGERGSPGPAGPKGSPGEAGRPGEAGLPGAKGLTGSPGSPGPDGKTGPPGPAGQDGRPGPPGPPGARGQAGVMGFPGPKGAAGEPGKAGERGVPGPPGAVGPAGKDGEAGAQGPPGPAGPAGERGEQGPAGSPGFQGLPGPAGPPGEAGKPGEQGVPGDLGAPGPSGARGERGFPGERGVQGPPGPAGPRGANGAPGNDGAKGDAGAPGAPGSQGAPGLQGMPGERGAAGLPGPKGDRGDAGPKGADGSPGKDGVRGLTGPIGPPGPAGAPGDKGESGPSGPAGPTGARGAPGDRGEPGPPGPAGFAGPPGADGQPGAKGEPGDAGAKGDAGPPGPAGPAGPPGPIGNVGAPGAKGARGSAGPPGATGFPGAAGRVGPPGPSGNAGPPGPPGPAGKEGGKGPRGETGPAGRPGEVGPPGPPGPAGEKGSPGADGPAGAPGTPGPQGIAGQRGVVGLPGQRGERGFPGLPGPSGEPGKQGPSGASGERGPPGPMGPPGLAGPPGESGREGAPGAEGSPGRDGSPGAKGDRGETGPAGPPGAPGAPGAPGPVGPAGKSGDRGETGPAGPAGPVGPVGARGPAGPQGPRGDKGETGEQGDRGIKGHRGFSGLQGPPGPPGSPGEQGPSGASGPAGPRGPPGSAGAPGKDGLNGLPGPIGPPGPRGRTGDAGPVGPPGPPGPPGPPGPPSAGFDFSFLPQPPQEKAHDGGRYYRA
Chain of collagen I (P08123 80-1119, chain 2 of 2, further chain): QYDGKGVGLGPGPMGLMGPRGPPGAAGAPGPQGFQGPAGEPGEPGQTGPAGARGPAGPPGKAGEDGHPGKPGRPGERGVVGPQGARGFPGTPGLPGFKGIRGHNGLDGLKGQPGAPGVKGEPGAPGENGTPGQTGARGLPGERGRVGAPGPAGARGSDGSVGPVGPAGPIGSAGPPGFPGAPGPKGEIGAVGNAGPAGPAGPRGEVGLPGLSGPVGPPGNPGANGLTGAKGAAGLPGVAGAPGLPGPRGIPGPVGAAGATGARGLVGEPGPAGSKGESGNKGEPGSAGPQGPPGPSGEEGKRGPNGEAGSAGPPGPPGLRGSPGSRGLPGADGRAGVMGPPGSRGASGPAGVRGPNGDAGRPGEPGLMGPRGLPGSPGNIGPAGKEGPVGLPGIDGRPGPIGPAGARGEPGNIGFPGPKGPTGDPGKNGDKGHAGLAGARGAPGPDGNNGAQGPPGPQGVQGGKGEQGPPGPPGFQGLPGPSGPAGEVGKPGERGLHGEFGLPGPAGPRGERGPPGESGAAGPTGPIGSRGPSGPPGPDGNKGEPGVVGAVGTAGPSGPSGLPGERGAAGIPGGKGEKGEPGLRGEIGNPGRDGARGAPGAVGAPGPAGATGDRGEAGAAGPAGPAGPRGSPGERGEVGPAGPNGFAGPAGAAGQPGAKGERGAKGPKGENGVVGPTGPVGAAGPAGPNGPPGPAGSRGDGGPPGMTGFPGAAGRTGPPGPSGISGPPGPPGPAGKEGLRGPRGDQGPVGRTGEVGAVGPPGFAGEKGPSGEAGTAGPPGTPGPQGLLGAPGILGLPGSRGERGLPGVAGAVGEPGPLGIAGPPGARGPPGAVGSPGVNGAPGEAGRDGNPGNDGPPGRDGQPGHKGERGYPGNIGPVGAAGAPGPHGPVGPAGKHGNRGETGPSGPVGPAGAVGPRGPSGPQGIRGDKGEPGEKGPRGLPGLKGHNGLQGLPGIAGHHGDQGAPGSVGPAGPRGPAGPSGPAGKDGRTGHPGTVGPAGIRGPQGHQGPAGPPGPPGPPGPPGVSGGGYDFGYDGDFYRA
Experiment [3] concerns the target collagen I (UniProt P02452). Kind of experiment: SPR.

Chain of collagen III (P02461 154-1221): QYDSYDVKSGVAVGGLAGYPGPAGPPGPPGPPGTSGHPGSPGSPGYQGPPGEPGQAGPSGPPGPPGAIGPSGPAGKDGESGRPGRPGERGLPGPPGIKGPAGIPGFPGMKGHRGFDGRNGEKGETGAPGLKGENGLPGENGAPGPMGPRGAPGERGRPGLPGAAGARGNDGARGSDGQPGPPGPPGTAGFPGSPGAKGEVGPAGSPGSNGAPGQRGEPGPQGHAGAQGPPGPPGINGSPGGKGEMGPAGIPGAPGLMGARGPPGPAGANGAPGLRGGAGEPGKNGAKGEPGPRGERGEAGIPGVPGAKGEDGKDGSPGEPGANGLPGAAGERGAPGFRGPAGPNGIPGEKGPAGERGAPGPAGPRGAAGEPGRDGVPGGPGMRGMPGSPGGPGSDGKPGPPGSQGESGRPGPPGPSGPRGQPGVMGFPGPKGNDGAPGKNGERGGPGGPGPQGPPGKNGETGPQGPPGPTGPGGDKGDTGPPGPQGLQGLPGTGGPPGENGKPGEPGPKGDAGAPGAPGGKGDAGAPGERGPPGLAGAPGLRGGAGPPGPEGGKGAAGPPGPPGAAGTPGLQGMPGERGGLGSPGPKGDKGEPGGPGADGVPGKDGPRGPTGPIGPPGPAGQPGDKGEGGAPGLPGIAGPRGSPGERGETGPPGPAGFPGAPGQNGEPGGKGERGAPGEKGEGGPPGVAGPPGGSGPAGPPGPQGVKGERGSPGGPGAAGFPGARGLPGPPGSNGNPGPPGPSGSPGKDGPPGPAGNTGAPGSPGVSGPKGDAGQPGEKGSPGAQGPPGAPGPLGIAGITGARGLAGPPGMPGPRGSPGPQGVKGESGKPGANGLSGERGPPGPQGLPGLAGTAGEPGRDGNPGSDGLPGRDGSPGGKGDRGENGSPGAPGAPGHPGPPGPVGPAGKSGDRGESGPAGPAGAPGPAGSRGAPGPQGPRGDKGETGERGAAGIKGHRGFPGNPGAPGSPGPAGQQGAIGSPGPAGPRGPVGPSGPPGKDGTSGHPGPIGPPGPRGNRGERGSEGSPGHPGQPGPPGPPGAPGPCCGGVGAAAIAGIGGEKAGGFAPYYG

By Kd is commonly meant a measure of binding affinity in units of concentration. High values mean weaker binding, low ones tighter binding. Consider “collagen-binding, serum albumin-fused IL-4 variant (CBD-SA-IL-4)”, for which the Kd is 37 nM in experiment [1] and 8 nM in experiment [2].

What is called koff is a measure of how fast the partners let go of each other. A lower koff goes with a long-lived complex. In experiment [3], “collagen-binding, serum albumin-fused IL-4 variant (CBD-SA-IL-4) (from UniProt P04275)” returned a koff of 0.0026 s⁻¹.
